We go through six molecules from patent US20250042994A1 (HAINAN SIMCERE ZAIMING PHARMACEUTICAL, published 2025).

T1: Human CD19-his protein (human, UniProt P15391 20-291)
T1 construct: bought protein; also called human CD19 protein; recombinant human CD19-His; not shown: His tag
T1 sequence (looked up): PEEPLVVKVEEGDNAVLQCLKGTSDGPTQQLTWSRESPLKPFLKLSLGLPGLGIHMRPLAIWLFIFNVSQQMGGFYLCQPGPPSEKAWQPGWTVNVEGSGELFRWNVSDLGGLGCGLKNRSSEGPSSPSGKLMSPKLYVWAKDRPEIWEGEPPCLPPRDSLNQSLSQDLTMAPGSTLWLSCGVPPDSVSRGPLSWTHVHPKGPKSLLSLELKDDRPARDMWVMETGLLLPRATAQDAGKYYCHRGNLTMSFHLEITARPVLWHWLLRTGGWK

T2: murine CD19 protein (murine, UniProt P25918 17-287, limits assumed)
T2 construct: bought protein; also called commercial murine CD19
T2 sequence (looked up): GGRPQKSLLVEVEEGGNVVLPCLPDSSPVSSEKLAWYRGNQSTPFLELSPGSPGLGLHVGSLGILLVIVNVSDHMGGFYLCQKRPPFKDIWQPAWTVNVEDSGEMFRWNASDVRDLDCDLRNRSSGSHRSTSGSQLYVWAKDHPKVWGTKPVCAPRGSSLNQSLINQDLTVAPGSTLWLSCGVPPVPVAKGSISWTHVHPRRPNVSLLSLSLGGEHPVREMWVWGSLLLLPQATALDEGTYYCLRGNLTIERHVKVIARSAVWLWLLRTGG

T3: human CD19 exon1-3-his protein (human, UniProt P15391 20-186, limits assumed)
T3 construct: made in HEK293E cells; also called membrane-distal end; not shown: His tag
T3 sequence (looked up): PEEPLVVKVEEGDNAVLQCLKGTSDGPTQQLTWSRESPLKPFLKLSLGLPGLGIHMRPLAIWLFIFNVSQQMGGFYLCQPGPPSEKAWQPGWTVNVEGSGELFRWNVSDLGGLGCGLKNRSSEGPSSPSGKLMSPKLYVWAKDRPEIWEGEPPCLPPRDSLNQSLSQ

B1: F4.21.2 (antibody, human IgG1, V domains shown)
VH: QVQLKQSGPGLVQPSQSLSITCTVSGFSLSTYGVHWVRQSPGRGLEWLGVIWIGGTTDYNAAFISRLTISKDNSRGQVFFKMDSLQANDTAIYYCARKGYYKYDGGYYYAMDYWGQGTSVTVSS
VL: DIQMTQSSSYLSVSLGGRVTITCKASDHINNWLAWYQQKPGNAPWLLISGATSLETGVPSRFSGSGSGKDYTLSISSLQTEDVATYYCQQYWSTPLTFGAGTKLELK
notes: human-murine chimeric antibody, human IgG1
B2: F4.48.12 (antibody, human IgG1, V domains shown)
VH: QMQLKESGPGLVAPSQSLSITCTVSGFSLTDYGVSWIRQPPGKGLEWLGVIWGSGSTFYNSALTSRLSISKDNSKSQVFLKMNSLQTADTAMYFCAKHHYYGGSFAMDYWGQGTSVTVSS
VL: DIQMTQASSSLSASLGDRVTISCKTSQDISNYLNWYQQKPDGTFKLLIHYTSRLHSGVPSRFSGSGSGSDYSLTISNLEREDIATYFCQQGNSLPYTFGGGTKLEMK
notes: as for B1
B3: F4.41.1 (antibody, human IgG1, V domains shown)
VH: QVQLQQSGAELVRPGTSVKVSCKASGYAFTNYLIEWVKQRPGQGLEWIGVINPGSGDTLYNEKFKGKATLTADKSSTTAYMQLSGLTSDVSAIYFCARSPPITTIVADYFDYWGQGTTLTVSS
VL: DIQMTQTTSSLSASLGDRVTISCRASQDISNYLNWYQQKPDGTVKLLIYYTSRLHSGVPSRFSGSGSGADYSLTISNLEQEDIATYFCQQGKTLPYTFGGGTKLEIK
notes: as for B1
B4: F3.133.14 (antibody, human IgG1, V domains shown)
VH: QVQLQQPGAELVMPGASVKLSCKASGYTFTNYWMHWVKQRPGQGLEWIGEIDPSDYYANYNQKFKGKATLTVDKSSSTAYMQLSSLTSEDSAVYYCARSHYYANSYNYWGQGTTLTVSS
VL: EIELTQSPTTMAASPGEKITITCSASSSISSDYLHWYQQKPGFSPKLLIYRTSNLASGLPARFSGSGSGTSYSLTIGTMEAEDVATYYCQQGSSVPRMLTFGAGTKLELK
notes: as for B1
B5: F4.33.12 (antibody, human IgG1, V domains shown)
VH: QVQLQQSGAELVRPGSSVKISCKGSGYAFSSYWMNWVKQRPGQGLEWIGQIYPGDGDTNYNGKFKGKATLTADKSSSTAYMQLSSLTSEDSAVYFCARAGFYYGSDSSMDYWGQGTSVTVSS
VL: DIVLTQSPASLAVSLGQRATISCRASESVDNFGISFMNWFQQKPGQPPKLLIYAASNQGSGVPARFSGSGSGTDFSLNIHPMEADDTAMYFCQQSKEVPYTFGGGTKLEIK
notes: as for B1
B6: F4.22.6 (antibody, human IgG1, V domains shown)
VH: QVQLQQSGPELVKPGASVKISCKASGYAFSSFWMNWVKQRPGQGLEWIGRIYPGDGDTNYNGKFKGKATLTADKSSTTAYMHLSSLTSVDSAVYFCTRSVITAVVDWYFDVWGAGTTVTVSS
VL: QIVLSQSPAILSASPGEKVTLTCRASSSVNFMHWYQQKPGSSPKPWIYATSNLASGAPARFSGSGSGTSYSLTISRVEAEDAAAYYCQQWSSYPIFTFGSGTKLEIK
notes: as for B1

The first assay has as its target T1, Human CD19-his protein. Put plainly: ELISA, antibody at 10 nM.
Consider B1, for which the OD450 is 1.94.
B2 displayed an OD450 of 1.76.
On the same count and under the same terms, in the case of B3 it was 0.61; in that of B4, 1.87.
On the same count and under the same terms, in the case of B5 it was 1.72.
Same read-out and setting: in the case of B6 it was 0.96.

For a further assay, the target named is T1, Human CD19-his protein. The assay is described as follows: ELISA, antibody at 0.01 nM. A general note: ELISA stands for enzyme-linked immunosorbent assay.
For B1, the OD450 is 0.29.
B2: the OD450 turned out to be 0.38.
Same read-out and setting: in the case of B3 it was 0.07.
On the same count and under the same terms, in the case of B4 it was 0.12; in that of B5, 0.11; in that of B6, 0.17.

The target of the next assay is T1, Human CD19-his protein. The assay is described as follows: ELISA, antibody at 0.001 nM.
For B1, the OD450 amounted to 0.1.
Still for that read-out and setting: in the case of B2 it was 0.09; in that of B3, 0.05; in that of B4, 0.07.
With B5, the OD450 is 0.06.
Same read-out and setting: in the case of B6 it was 0.08.

Another assay has as its target T1, Human CD19-his protein. The assay is described as follows: ELISA, antibody at 0.0001 nM.
Regarding B1, the OD450 turned out to be 0.07.
B2 yielded an OD450 of 0.06.
The same measure, in the same setting: in the case of B3 it was 0.05; in that of B4, 0.05; in that of B5, 0.05.
On the same count and under the same terms, in the case of B6 it was 0.06.

For the next assay, the target named is T1, Human CD19-his protein. The assay is described as follows: ELISA, antibody at 1.00 nM.
B1 showed an OD450 of 1.98.
Still for that read-out and setting: in the case of B2 it was 1.89; in that of B3, 0.43; in that of B4, 1.59.
In turn, B5 registered an OD450 of 1.37.
Same read-out and setting: in the case of B6 it was 0.83.

For another assay, the target named is T1, Human CD19-his protein. Put plainly: ELISA on coated human CD19-His.
In the case of B1, the “EC50 (read off the curve)” value is around 0.07 nM.
For B2, the “EC50 (read off the curve)” value was around 0.03 nM.
On the same count and under the same terms, in the case of B3 it was around 0.5 nM; in that of B4, around 0.2 nM; in that of B5, around 0.3 nM.
In the case of B6, the “EC50 (read off the curve)” value was around 0.05 nM.

Another assay deals with T2, murine CD19 protein. The assay is described as follows: ELISA, coated murine CD19. An outline of the steps: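 Plates coated overnight at 4° C with recombinant murine or monkey CD19 and blocked with 2% BSA. Chimeric antibodies, serially diluted from 100 nM, bound for 2 h at 37° C. TMB development for 10 min with OD450 read-out.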
With B1, the binding result is “no binding”.
For B2, the binding result was “no binding”.
Still for that read-out and setting: in the case of B3 it was “no binding”.
The same measure, in the same setting: in the case of B4 it was “no binding”; in that of B5, “no binding”.
The same measure, in the same setting: in the case of B6 it was “no binding”.

For a further assay, the target named is T1, Human CD19-his protein. The assay is described as follows: ELISA, antibody at 100 nM.
B1 showed an OD450 of 1.9.
The same measure, in the same setting: in the case of B2 it was 1.93; in that of B3, 0.68; in that of B4, 1.62.
Same read-out and setting: in the case of B5 it was 1.64; in that of B6, 0.88.

In another assay the target is T3, human CD19 exon1-3-his protein. Put plainly: ELISA, coated at 2 ug/mL.
In the case of B1, the binding result is “no binding”.
B2: the binding result is given as “no binding”.
Consider B3, for which the binding result is recorded as “no binding”.
Still for that read-out and setting: in the case of B4 it was “no binding”; in that of B5, “no binding”.
The same measure, in the same setting: in the case of B6 it was “no binding”.

A further assay concerns the target T1, Human CD19-his protein. Put plainly: ELISA, antibody at 0.10 nM.
Molecule B1 displayed an OD450 of 1.1.
On the same count and under the same terms, in the case of B2 it was 1.56; in that of B3, 0.16.
Still for that read-out and setting: in the case of B4 it was 0.58.
The same measure, in the same setting: in the case of B5 it was 0.51; in that of B6, 0.62.

One may read the EC50 (read off the curve) as the concentration that produces a half-maximal response. A lower EC50 (read off the curve) goes with a more potent agent.
